Experimental findings from patent US11180733B2, “Method of generating mesenchymal stem cells and uses thereof” (AGENCY FOR SCIENCE, TECHNOLOGY AND RESEARCH, priority 2016, dated 2021) are described below.

Entries after “also recorded” stand apart in the source; their conditions may differ.

Test [1] concerns human induced pluripotent stem cells (iPSCs). Kind of test: Differentiation of iPSCs towards primitive streak (PS)-like mesendoderm (morphology, qPCR). It counts as cell-based. On the procedure:
BJC1-iPSCs were differentiated towards primitive streak-like mesendoderm cells for 2 days with indicated combination of CHIR99021 (3 μM) and FGF (20 ng/ml) in conjunction with the indicated signaling perturbations, qPCR was performed at day 2. […] FIG. 9C represents data from FACS analysis showing more than 97% cells at day 2 were positive for primitive streak genes MIXL1, Brachyury (T) and GSC. FIG. 9D represents the immunofluoresence results at day 2 showing the expression of MIXL1, Brachyury (T) and GSC after 2 day of primitive streak induction.
iPSCs from MRCS or BJ cell lines, or hESCs were differentiated into primitive streak-like mesendoderm cells and primitive streak mesendoderm cells respectively. Feeder-free iPSCs were maintained in mTeSR (Stem Cell Technologies) before differentiation. To differentiate iPSCs, iPSCs were digested with 1 mg/ml collagenase IV for 5-10 min at 37° C. into small clumps and placed on a fibronectin (FN, 10 μg/ml)-coated surface in medium containing activin A (25 ng/ml) and CHIR99021 (3 μM) for 1 day in a basal medium (DMEM: F12, 1% ITS, 2% B27, 2 mM L-Glutamine, 90 uM ß-mercaptoethanol), followed by Activin A (25 ng/ml), CHIR99021 (3 μM) and FGF (20 ng/ml) for subsequent 24 hours to differentiate toward primitive streak (PS)-like mesendoderm.
Quantitative real-time PCR was performed with Taqman expression assay using ABI PRISM 7900HT sequence Detection System (Applied Biosystems). Briefly, […] of total RNA was converted to cDNA using high capacity cDNA archive kit in 30 μl and then diluted to 500 μl. Quantitative real-time PCR was done as follows: initial denaturation for 2 min at 50° C., 10 min at 95° C., following 40 cycles of PCR (95° C. for 15 s, 60° C. for 1 min) by using 5 μl of 2× Master mix, 0.5 μl of probe and 4.5 μl of cDNA. All probes were designed with a 5′ fluoregenic 6-carboxylfluorescein, and a 3′ quencher, tetramethyl-6-carboxyrhodamine. The expression of human GAPDH was used to normalize gene expression levels.

In a further test the test system is BJC1-iPSCs. Kind of test: Differentiation of PS-like mesendoderm towards lateral plate-like mesoderm (qPCR, cell number at day 10). It counts as cell-based, human. As to the method: BJC1-iPSCs were differentiated towards mesoderm after 8 days of differentiation with indicated combination of FGF (20 ng/ml), Rock inhibitor Y27632 (5 uM) and Follistatin (100 ng/ml) in conjunction with the indicated signaling perturbations, qPCR was performed at day 10. […] BJC1-iPSCs were differentiated towards mesoderm after 8 days of differentiation with indicated combination of FGF (20 ng/ml), BMP4 (40 ng/ml), and Rock inhibitor Y27632 (5 uM) in conjunction with the indicated signaling perturbations, qPCR was performed at day 10. […] Mesoderm differentiation was induced with FGF (20 ng/ml), BMP4 (40 ng/ml), rock inhibitor Y27632 (5 μM, only used at the time of passage and remove the next day) and follistatin (100 ng/ml) for 8 days. Quantitative real-time PCR was performed with Taqman expression assay using ABI PRISM 7900HT sequence Detection System (Applied Biosystems). Briefly, […] of total RNA was converted to cDNA using high capacity cDNA archive kit in 30 μl and then diluted to 500 μl. Quantitative real-time PCR was done as follows: initial denaturation for 2 min at 50° C., 10 min at 95° C., following 40 cycles of PCR (95° C. for 15 s, 60° C. for 1 min) by using 5 μl of 2× Master mix, 0.5 μl of probe and 4.5 μl of cDNA. All probes were designed with a 5′ fluoregenic 6-carboxylfluorescein, and a 3′ quencher, tetramethyl-6-carboxyrhodamine. The expression of human GAPDH was used to normalize gene expression levels.
Background: Real-time PCR tracks product formation cycle by cycle.

The mark [2] stands for this setting: compared with wnt3a (ACF vs AWF).
[3] abbreviates: with FGF 20 ng/ml, BMP4 40 ng/ml, Y27632 5 uM, qPCR at day 10.

`Cc1cnc(-c2cnc(NCCNc3ccc(C#N)cn3)nc2-c2ccc(Cl)cc2Cl)[nH]1` [CHIR99021, 6-[2-[[4-(2,4-dichlorophenyl)-5-(5-methyl-1H-imidazol-2-yl)pyrimidin-2-yl]amino]ethylamino]pyridine-3-carbonitrile, reference compound]: in test [1] (setting [2]), the “adherence of iPSCs to the dish” value was “promoted the adherence of iPSCs to the dish” and the “differentiation toward PS-like mesendoderm” value is “promoted differentiation toward PS-like mesendoderm”.
As to `C[C@@H](N)[C@H]1CC[C@H](C(=O)Nc2ccncc2)CC1.Cl.Cl` [Y27632, (R)-(+)-trans-4-(1-Aminoethyl)-N-(4-Pyridyl)cyclohexanecarboxamide dihydrochloride, reference compound], in the test with BJC1-iPSCs (compared to NT4, dihydrochloride), the “expression of lateral plate mesoderm genes Hand1 and FOXF1” value was “increased the expression of lateral plate mesoderm genes Hand1 and FOXF1; also recorded: significantly increases the expression of lateral plate mesoderm genes”. The “increase in cell number” value with BJC1-iPSCs (compared with neurotrophi-4 (NT), day 10) turned out to be 3.53±1.56 fold.
Consider “FGF: fibroblast growth factor; in one specific example FGF2”, for which the “differentiation toward PS-like mesendoderm” value in test [1] (addition of FGF at day 2) was “did not further enhance differentiation toward PS-like mesendoderm”. Also, the expression of mesoderm result in test [1] (in the presence of FGF at day 2) was “expression of mesoderm increased”.

B1: activin A: Activin A formed by two activin βA subunits, member of the TGF-β superfamily (protein, UniProt P08476 311-426, looked up)
Inhibin beta A chain: GLECDGKVNICCKKQFFVSFKDIGWNDWIIAPSGYHANYCEGECPSHIAGTSGSSLSFHSTVINHYRMRGHSPFANLKSCCVPTKLRPMSMLYYDDGQNIIKKDIQNMIVEECGCS
modifications: Inhibin beta A chain
Regarding B1, the “differentiation towards PS-like mesendoderm expressing T, MIXL1 and GSC” value in test [1] (activin 25-100 ng/ml with CHIR99021 3 μM and FGF 20 ng/ml, qPCR at day 2) is “enhanced differentiation towards PS-like mesendoderm”. Also, in test [1] (activin 25-100 ng/ml, qPCR at day 2), the “expression of endodermal marker Sox17” value is listed as “increased with the dose”. Besides, the “activin A concentration at which the ratio of increased MIXL1 or T to Sox17 was the highest” value in test [1] (qPCR at day 2) is 25 ng/mL.

B2: noggin: antagonism of BMP signaling (protein, UniProt Q13253 28-232, looked up)
Noggin: QHYLHIRPAPSDNLPLVDLIEHPDPIFDPKEKDLNETLLRSLLGGHYDPGFMATSPPEDRPGGGGGAAGGAEDLAELDQLLRQRPSGAMPSEIKGLEFSEGLAQGKKQRLSKKLRRKLQMWLWSQTFCPVLYAWNDLGSRFWPRYVKVGSCFSKRSCSVPEGMVCKPSKSVHLTVLRWRCQRRGGQRCGWIPIQYPIISECKCSC
Turning to B2, the “expression of ectodermal gene Sox1” value with BJC1-iPSCs (in the absence of BMP4 or in the presence of noggin, qPCR at day 10) turned out to be 38.65 fold.

B3: BMP4: bone morphogenetic protein (protein, UniProt P12644 293-408, looked up)
Bone morphogenetic protein 4: SPKHHSQRARKKNKNCRRHSLYVDFSDVGWNDWIVAPPGYQAFYCHGDCPFPLADHLNSTNHAIVQTLVNSVNSSIPKACCVPTELSAISMLYLDEYDKVVLKNYQEMVVEGCGCR
For B3, the “BMP4 concentration that led to the highest expression of lateral plate mesoderm markers” value with BJC1-iPSCs (with FGF 20 ng/ml, Y27632 5 uM, Follistatin 100 ng/ml, qPCR at day 10) was determined as 40 ng/mL.

B4: follistatin: protein encoded by the FST gene (protein, UniProt P19883 30-344, looked up)
Follistatin: GNCWLRQAKNGRCQVLYKTELSKEECCSTGRLSTSWTEEDVNDNTLFKWMIFNGGAPNCIPCKETCENVDCGPGKKCRMNKKNKPRCVCAPDCSNITWKGPVCGLDGKTYRNECALLKARCKEQPELEVQYQGRCKKTCRDVFCPGSSTCVVDQTNNAYCVTCNRICPEPASSEQYLCGNDGVTYSSACHLRKATCLLGRSIGLAYEGKCIKAKSCEDIQCTGGKKCLWDFKVGRGRCSLCDELCPDSKSDEPVCASDNATYASECAMKEAACSSGVLLEVKHSGSCNSISEDTEEEEEDEDQDYSFPISSILEW
For B4, in the test on BJC1-iPSCs (presence compared to absence of Follistatin, qPCR at day 10), the “expression of lateral plate mesoderm genes Hand1 and FOXF1 and mesenchymal stem cell genes CD44 and CD105” value is “significantly increases the expression”. Also, in the test with BJC1-iPSCs (setting [3]), the “endodermal differentiation Sox17 and FOXA1” value is listed as “inhibited endodermal differentiation”; the mesodermal differentiation result was “promoting mesodermal differentiation”.
